Laboratory results reported in patent US20230008694.

Legend:
Experiment in all cases: cell_activity
[1] = system: GmFAD3_T08-R1 half-TALEN (synthetic (TAL effector-FokI))
[2] = system: GmFAD3_T09-R1 half-TALEN (synthetic (TAL effector-FokI))
[3] = system: GmFAD2_T04-R1 half-TALEN (synthetic (TAL effector-FokI)); conditions: pair with T04-L1 at FAD2-1A (FAD2-1B 3.54)
[4] = system: GmFAD2_T02-L1 half-TALEN (synthetic (TAL effector-FokI)); conditions: pair with T02-R1 at FAD2-1A (FAD2-1B 1.19)
[5] = system: GmFAD2_T03-L1 half-TALEN (synthetic (TAL effector-FokI)); conditions: pair with T03-R1 at FAD2-1A (FAD2-1B 3.94)
[6] = system: GmFAD2_T01-L1 half-TALEN (synthetic (TAL effector-FokI)); conditions: pair with T01-R1 at FAD2-1A (FAD2-1B 3.41); soybean protoplasts
[7] = system: GmFAD2_T03-R1 half-TALEN (synthetic (TAL effector-FokI)); conditions: pair with T03-L1 at FAD2-1A (FAD2-1B 3.94)
[8] = system: GmFAD2_T02-R1 half-TALEN (synthetic (TAL effector-FokI)); conditions: pair with T02-L1 at FAD2-1A (FAD2-1B 1.19)
[9] = system: GmFAD3_T08-L1 half-TALEN (synthetic (TAL effector-FokI))
[10] = system: GmFAD3_T09-L1 half-TALEN (synthetic (TAL effector-FokI))
[11] = system: GmFAD2_T01-R1 half-TALEN (synthetic (TAL effector-FokI)); conditions: pair with T01-L1 at FAD2-1A (FAD2-1B 3.41)
[12] = system: GmFAD2_T04-L1 half-TALEN (synthetic (TAL effector-FokI)); conditions: pair with T04-R1 at FAD2-1A (FAD2-1B 3.54)

CACATTGAGAAGGATGA (double strand) [GmFAD3_T08-R1 half-site]
activity ([1]; pair with T08-L1 at FAD3A (FAD3B 14.57), with T09-L1 12.37 at FAD3A, 11.17 at FAD3B): 22.9 % NHEJ | activity ([2]; pair with T08-L1 at FAD3A (FAD3B 1.80), mismatched right half-site, with T09-L1 6.46 (FAD3B 3.61)): 6.56 % NHEJ

CATGTTGAGAAGGATGA (double strand) [GmFAD3_T09-R1 half-site]
activity ([1]; pair with T09-L1 at FAD3C, mismatched right half-site, with T08-L1 3.59): 5.98 % NHEJ | activity ([2]; pair with T09-L1 at FAD3C, with T08-L1 7.60): 11.3 % NHEJ

TAGGTGGTGGCAATGTA (double strand) [GmFAD2_T04-R1 half-site]
activity [3]: 4.67 % NHEJ

TATGTTGTTTATGACCT (double strand) [GmFAD2_T02-L1 half-site]
activity [4]: 0.91 % NHEJ

TCCTATGTTGTTTATGA (double strand) [GmFAD2_T03-L1 half-site]
activity [5]: 4.91 % NHEJ

TCTCAAGGGTTCCAAAC (double strand) [GmFAD2_T01-L1 half-site]
activity [6]: 3.95 % NHEJ

TGGCAATGTAGAAAATG (double strand) [GmFAD2_T03-R1 half-site]
activity [7]: 4.91 % NHEJ

TGGTGGCAATGTAGAAA (double strand) [GmFAD2_T02-R1 half-site]
activity [8]: 0.91 % NHEJ

TTAGCCACAGAACTCAC (double strand) [GmFAD3_T08-L1 half-site]
activity ([9]; pair with T08-R1 at FAD3A (FAD3B 14.57), soybean protoplasts 48 h): 22.9 % NHEJ | activity ([10]; pair with T08-R1 at FAD3A (FAD3B 11.17), mismatched left half-site): 12.4 % NHEJ

TTAGCCACAGGACTCAC (double strand) [GmFAD3_T09-L1 half-site]
activity ([9]; pair with T09-R1 at FAD3C, mismatched left half-site, with T08-R1 3.59): 7.6 % NHEJ | activity ([10]; pair with T09-R1 at FAD3C, multiplex T09-L1/T08-R1/T09-R1 21.42 (Table 2)): 11.3 % NHEJ

TTGAGTTGGCCAACAGT (double strand) [GmFAD2_T01-R1 half-site]
activity [11]: 3.95 % NHEJ

TTGTTTATGACCTTTCA (double strand) [GmFAD2_T04-L1 half-site]
activity [12]: 4.67 % NHEJ
